Source: US20210015937A1

Biological target: human LAG-3 expressed on cells (human) (UniProt P18627)
Experiment: cell-based or functional assay

human LAG-3 expressed on cells (human), sequence (P18627 23-525 limits assumed): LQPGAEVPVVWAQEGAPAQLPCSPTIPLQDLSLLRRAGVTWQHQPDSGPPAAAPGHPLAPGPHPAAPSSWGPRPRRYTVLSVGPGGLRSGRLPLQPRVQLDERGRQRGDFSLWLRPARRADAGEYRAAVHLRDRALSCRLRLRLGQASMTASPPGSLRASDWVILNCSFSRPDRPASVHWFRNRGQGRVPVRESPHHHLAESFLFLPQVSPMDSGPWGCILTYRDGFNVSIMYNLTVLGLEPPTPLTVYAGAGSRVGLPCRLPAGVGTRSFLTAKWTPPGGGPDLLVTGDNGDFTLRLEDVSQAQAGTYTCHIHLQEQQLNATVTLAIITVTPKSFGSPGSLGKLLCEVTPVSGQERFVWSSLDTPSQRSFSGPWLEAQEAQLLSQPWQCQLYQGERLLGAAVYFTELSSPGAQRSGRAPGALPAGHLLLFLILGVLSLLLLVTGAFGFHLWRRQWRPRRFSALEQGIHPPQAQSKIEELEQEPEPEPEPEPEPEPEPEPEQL

| Substance | EC50 (M), NFAT-Luciferase Reporter Gene assay (LAG-3:MHCII) [M] |
| --- | --- |
| Mouse anti-LAG3 antibody clone 17B4 | 3.2e-08 |
| Human anti-LAG3 antibody (Relatlimab analogue) | 4e-09 |
